Test results as given in the domain aggregation screens of Martell et al. (2025).

Test: soluble fraction after stress (log2 fold change); higher = more stays soluble; pooled small domains, quantitative proteomics
Settings: stress: 75 degC
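Also: 20 min heating vs room temperature control held 20 min.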

Row | Sequence | soluble fraction (log2)
1 | HMENRREYQKAIDYLSDQIRAGTLTVGSRLPTERAIAEALGISRNSTREALRTMENMGMIESKQGSGHYLT | -0.215
2 | HMNILAPFWERFGLSAFAAGNYDRAEGYFRKLEQKDPNSMSVLRNLGLILMAKGDAEGAEAYLLREEKL | -0.755
3 | HMSKRIFPNEFQRNSPDAMVMLDKMNLSRINVDPLTKSLTLNGGGSVKTLLNGREVSAVEIAALSP | 0.124
4 | HMNVESLVGKQVIVSETIDNLKATGQVKVNGLEWTARAADETDIIPQGTEVTINEVSGVKLIVSR | 0.0398
5 | HMSSWEDNFSYWIRNVAETLDKDLLNVANSKLEKIIINAALDQTNGKKNEAAILLGLGRNTLAKKIKELG | -0.799
6 | HMASFASRAEEVMTKLLANGQPRIKEVADAMHLSSRTLQRRLEREGVSFAELLDRLRKRLAHDMLAHS | -1.51
7 | HMDVPVEVFMERIVTALREGRKTTFSELMEGKPERGKVIGTFLALLQLSKGQQIQIHQEQRTGEISIEGGA | -0.328
8 | HMRASQGRNELILSLLRGHELSILELLEGLEKQGVRVARPTLTKDLNELVSRGSVEATAPPRSKNRTYRIP | -0.986
9 | HMPEMHIYTKEGKIHITHIDENEEIKIYNPLGQIIYTGSPQDIPVLEGKGLYIIYIGKSAVEVLES | -2.2
10 | HMNEVIIKNWSNAVGRNIKIKTKRGRPIFGRLLAINDQQLTIASKYMRGNATITVAREDVVSMSVS | -3.08
11 | HMRKIKEVLRLKFETGFSHERIAAAVGVSKGAVTKYVQRAVAAGLGWPLAPERDDAALEALLFPH | 0.842
12 | HMKMVSTPTGTRISLTQVKEFISNASFDDMKEILLEVLAWFKAHNLGNPFNYNRAFEFIVAH | -0.256
13 | HMRQQLAEILQKAVDNLPEAQRLVWLLRDKSDMTFKEIAEDLQLTEANVRVLLHRARLKLLAVINQYEE | -1.66
14 | HMKADTSPEAQKKIIAAFEPYSVNKDQIEKLIQRRIDSITPAQVIRLRKILASLKDGMSSPEDWFE | -0.195
15 | HMSKEKQILQLLQHGYSQRRIADTLSVSRNTVAKVAKAAIEHPVSSDSLDSIDELELHQKLFPEEVLI | -0.486
16 | HMDEDTWKLYKRAYKKYYARYMKGNMSEEAFKTWAAQAARDRDAAIEQVKAALDENLKAQVIERLKEELNR | -0.831
17 | HMTKLTPLEVNLYAKKLANDPEFGSKHIEPGESFSQAEERLRVQLSQQEYVQKYSKYLKKLKASA | -0.198
18 | HMEDVSTLAVKQRIDDLVKQENPAKPLSDSDIVARLKTDGIYIARRTVAKYRMELNIPSSSARKRAQQFS | -2.31
19 | HMTDYVPTIGTKISKDFGSKGYFEGEVVSGPHNVTVEGDNMVVWKVQYEDGDREEMTASEIAHWKA | -0.104
20 | HMNKDWQDEVALQRYTMITPLLSEDLDNAKRIAMREKIAQDNLTTARSLYRYEKAYRENGFQGLRPTD | -0.252
21 | HMAMTITKIEKTSQQKIYYFTDSGRVFKKMSDRSATIAVDDRVELEGGVLGSKFFVTANGSRVKVKEV | -2.9
22 | HMGEVPVETKDGIKVHVHTVDKSQTAYGISRLYNITLNELYESNPEAKLELSIGQKLYFPVK | -0.199
23 | HMLQNLGFKPDLEIRHFPGIVLPDIHRSKKTISLLYTLLAGDIKKLPENEINYKDSKIISSYLWTLLRYH | 0.103
24 | HMGKQIKEIVEEYYDSTSKNSPVGGSWKTSLDGVDLTSPNITIWTRTKIKYVDGSESIVTPQSL | -0.105
25 | HMFDGVAAGKPAILDALEDAGGFLPLNSKSSVEEIQASFSFSKRVFKQLIGMLYKERKIVITDDGIRLAD | -0.279
26 | HMIGITTANLNVRTGTDTNYTSIAILPKGTKVNILEENVKPGWYKIQFDEIYAFVSSKYIKIQS | -3.56

Row | Sequence | soluble fraction (log2)
27 | HMEPTPREIVVQQLGYRGLEVLGNAEYQFPKETQIIILKLAELISSGSVTETLEGGKLLALFRGVGINVR | -1.55
28 | HMTMPDFGYMRVSYAEARRQLQAIGISVSTIEKVEDPSHTSATGDMVISQYPAAGSKIEGTVTLYVSVAS | -3.65
29 | HMKLVELVGSPKQIAWAEDIRKNMISYLSALVRKYEAENRPARAEKRAKDMEILSNIKEASWFIENRS | -0.733
30 | HMEEKWKENYEKIKLFISINNRYPSVYSEDKEEGLIGSFMSNQKRRKNKLSKEKMALFEALPNWIWE | -2.53
31 | HMDRRFFVAEENYKRLDVFLSERMEEFTRSRIKKLIDEGHVELNGKSAKAGAEIRPGDEVAAEIPEVKE | 0.195
32 | HMEKGIVSNKTDKGYGFIRSSTGESIFVHINNVGKEAYEQLAKGSRVLFDYEVTDRGKRATKVMLEPSES | -0.196
33 | HMGGSLADAKRFLADLLADGPVPAKGVRADADGAGHTWPTIRRAQKALGIEATKTGMKGGWVWALPR | -0.165
34 | HMNYVFVLNEHGVRQTSYVVGLHADTLEKTEKLAKQTYPTSTIISGDSEMQSQFISGKAYVNGEFVDP | -0.713
35 | HMIAKIEGQISYVGNRFLIVDVSGVGYKLFVTNEAISLSKVEESIKLWVHTAVRENSIDLYG | -1.7
36 | HMGPEVQLAYSEFLAKVKVGEVNDVMVKGNEIHGHFSDGRTFSTYSPNDPDLVEKLNKNKVMIKAAPP | 0.00889
37 | HMNHYTEEYILKRMKDFFTTHAYITRRDIESLFGFRRSYATKWLKHFRESGVLKQSGPVNSAVYLL | -3.18
38 | HMDIDLNTIKKITLDDIHAFLSYLTTTYHSKAATRARKASSIRVFFNYLSAKANLIEVNPAQNLETPKLD | 0.165
39 | HMPSARELLATNIVRLRKEKGWSQEDLALEAGLHRTFVAHVERHARNISLDNIERLANALQVNVHILLL | -3.81
40 | HMGTITKRTNPSGAVVWRAQIRINKADMPTYSESKTFSKKSLATEWLKRREAEIEANPDLIL | -0.929
41 | HMLTRSASREELDQLLKRLRQNLKQKNFFWPPDKEKSLVLYLENLFSKFPLNSSDIRFLHGIIRTLSEK | -0.188
42 | HMSDEEAISKLPGVGPAILEKLKEAGYNDIMTIAVDSPKNLAELAEIGEPTAAKIIAAAKKAAD | 0.113
43 | HMVIPATPTARRAKIAGLLADRSVRSQGELLTLLADAGIEVTQATLSRDLEALGAVKVRDGRGLVYAVPG | -0.32
44 | HMNQILDFTREVKNLPEQDKIKIVEALWSIIYSNKDADIYETNLMRRLAGLLYIDNKTMGDIKEKIKQNL | -0.906
45 | HMNITFAENIKQFRKAKSMSMEELGKRLGKAKSSISAWENGKRTPKINELKSISEALGVTISQLLGF | -1.71
46 | HMGDVSGFLRGVLADGPVPAKTVFSEASGAGYSRDQIQRAARKIGVERRKTGMAGGWVWELEP | -0.148
47 | HMDDFSETLLQYIKEKGGHISLNDKTDAGVIYETFGVSKKTFKKAVGDLYKKRLIVLEDTGIRL | -0.501
48 | HMQKPWFYESSGQRKGGFSEQEMVGLITDGEITHGAIVWRNGLSDWTKLEQTELAAHLDKTA | -0.11
49 | HMKILALETSAKAVSAAVSENGRILASGYQDTGLTHSRTLMPIVEHILKNTDLKLSDMDAIAVAVGPG | 0.144
50 | HMLNEIMDTINKYISDKRNNKVAQNILSAALDELNSQIRVGLKDLNPHSIEEFKENVINSPYIEFEQG | -0.0112
51 | HMFKINQKVKLIAPLPYLKTSENMPMLRPPDLVAIDEIGEVLSLKSPETVEVRFRRGSFLIDIDKLEKVD | -1.77
52 | HMSYFIFDGVLNLGKQYELKGEESSHITKSRRLRPGDSFLIQDQEGQRFEAILKSFDRNSLIFTPHKPTA | -0.722

Row | Sequence | soluble fraction (log2)
53 | HMLEIGRYNTLTVLRKVDFGYYLDGLDYGDILMPAKYAATELEAGDEVDVFIYLDSSEKLIATTETPIAQ | -4.06
54 | HMPTQTEELRRRIVADVNAGEPGAKLGSERELAERYGTSRSSLRQVLAALQEAGLIDRVIGRSGGIFISH | -0.0502
55 | HMQSSTAISFNQFQKSWLSNNIKSFQLGEDKMTVRGSLKNGTQYETIVPSERLFQFIGQHPKDGQVQEMY | 0.0453
56 | HMRRDEDLAHGRELLEKELRKQGLEVSENLKQDKLLEGAKRLGFLEAEDLVVAVGSGKVSAGMAVGRIIG | -0.114
57 | HMDFTMSEIQTAMAALPRGYRTVVQLYLVDGYSHKEIAEMLGVDVNTSKSQLSRGRKQLQAFLAAMS | -0.152
58 | HMRGHASVEIKRIVYKYKLTDQELAKITGMKASDFPIYHDHLQLILPKRYWARVLDALQNYEKEHES | -4.04
59 | HMGQMGHAVVAKTDLAVGTPLTRDLVAVREVPVEWLHSSAITPEQFERAAGAVLAQPARGGEPLVWSQLEE | 0.111
60 | HMINEDMTQSDRMELWGRLIDVVEDWLAEKGITEEDIPNEEREGVEDAAIIFGDDYDYLADRFSEVIGISR | -1.2
61 | HMNIYIEFGRRLAFIRQNSKLSQSQIAQKLNIAQSTYAGYEKGVRKIPLEIIVQLSKILNISPTILILG | -3.84
62 | HMYYTAPDGRKREILDAALRLIAAGGPDSLTYRRVADEAGVPLGSLTYYFEAREDLIREAFRLYIAEASR | -3.16
63 | HMYGLSFLIGFTVVDRTYGDIGKVTAIDDSTVNTLMAVGDRLIPAQEAFITKIDNTKKIIYTQLPEGLL | -1.17
64 | HMNNYNDSVQKIINYIADNLNENLSVRKLADKMPMSVSHFNRVFQKYTGDSPYAYVMAMRIKKAKYL | -0.157
65 | HMPYPSPADLARMDELIAWVKDEGRLPRDRSGQRSERSMARWLAARRREAAEGTLDPAYRDGLAQVPGWR | -0.497
66 | HMNPSVSSDERILLQKALGILSAEQKQIVMLHAVAGIKHREIAKLLDMPIATVLSKYSRAVNKLRHAMEA | -0.456
67 | HMKYKTKRDMILALMKKEILSGELKPRTRLLISEVASRYEVSEIPVREAFQVLIQEDLVRSTGAGFEVT | -2.36
68 | HMPTEPTARELEVTTLLAQGLSNREIAGALFISEHTVRNHLGHVFSKLGVSSRTQAVVRAGQLGWLR | -2.54
69 | HMTEPKRIVDHWQPSDDVYDILRMSHIDLDFARSLLPEFIVYWKDSSQTHTSWNSKFLQHAKYHWAKRHQL | -2.27
70 | HMVGKIVVPHLEGKPAEMARDILARDGFKSVHEEVLPSAEFGAGRVVRTEPHAGTNVAKTDPVTIFVSVGL | -0.268
71 | HMEEKKYEVGDVVSFNYLYKNSFAEGKVSSLIHSGTITRIIDGRPAPYLINRGTGWLSNDLILT | -1.21
72 | HMKTTVEVSPIARPGAVASGSVKFGSGVTAEWMLDQYGRLGLDKPTGKPTEQDIKEFQIELQKAL | 0.0637
73 | HMNQGKLIEMLQEMKEIAHSQNNYLTKNEIANYLGDTVLSKEQLQAVYHYLGENHIEVEGYVYIP | ≥ 1.04
74 | HMDFDFHALGREIKRKRKDKGWTQEYLAQLLDRTPRSIMYMENRGQHPSLNILFKIATLLEISIDQFFF | -0.114
75 | HMATGTVKWFNPNKGFGFIQQDDASKDVFVHSNELNGVYINEGDKVEFDVVETEKGLSAQNIKK | 0.222
76 | HMTLHEAMEKLFRQVGRPMTTKEIAEKLNENKWYQKADGSPLTPYQIYGRAKNYPALFHREGSIIYLKGS | -0.547
